# Measurements as given in the nanobody polyreactivity screen of Harvey et al. (2022).
# Assay: yeast display, Sf9 membrane polyspecificity reagent, FACS + sequencing; frameworks hold sequencing errors
# Summary of the method: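 Galactose induction of a Saccharomyces cerevisiae BJ5465 synthetic nanobody display library ran 36–48 hours. The cells were then stained for 1 hour at 4 °C with 10% biotinylated, detergent-solubilized Sf9 membrane reagent, pulled down on streptavidin microbeads and FACS-sorted into low and high (top ~1%) gates on expression and reagent-binding fluorescence. Labels for polyreactivity follow the gate of origin.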
row,Sequence,polyreactivity (PSR sort gate)
1,QVQLVESGGGLVQAGGSLRLSCAASGLIFKSNAMGWYRPAPGKERELVAAITRTGGSTYYADSVKGRFTISRDNAKNTVYLQMNSLKPEDTAVYYCAKVVGRWRSSWELDYWGQGTQVTVSS,high polyreactivity
2,QVQLVESGGGLVQAGGSLRLSCAASGLIFKTYAIGWYRLAPGNERELVAAISWSGGGNTYYADSVKGRFTISRDNAKNTVYLQMNSLKPEDTAVYYCNAPRFVSYDYWGQGTQVTVSS,high polyreactivity
3,QVQLVESGGGLVQAGGSLRLSCAASGLIFKVYAMGWYRQAPGKERELVAAITYSGGSTDYADSVKGRFTISRDNAKNTVYLQMNSLKPEDTAVYYCNVEKVGHVNSYGYDYWGQGTQVTVSS,low polyreactivity
4,QVQLVESGGGLVQAGGSLRLSCAASGLIFKYKAMGWYRQAPGKERELVAAISTSGGSTYYADSVKGRFTISRDNAKNTVYLQMNSLKPEDTAVYYCNAVAGRPFRYYYWGQGTQVTVSS,high polyreactivity
5,QVQLVESGGGLVQAGGSLRLSCAASGLIFKYNAMGWYRQAPGKERELVADINRSGGSTYYADSVKGRFTISRDNAKNTVYLQMNSLKPEDTAVYYCAAERVSLYWVIFGYWGQGTQVTVSS,low polyreactivity
6,QVQLVESGGGLVQAGGSLRLSCAASGLIFKYYAMGWYREAPGKERELVATITRGGGSTYYADSVKGRFTISRDNAKNTVYLQMNSLKPEDTAVYYCAADYWYVYPRYNPGDYWGQGTQVTVSS,high polyreactivity
7,QVQLVESGGGLVQAGGSLRLSCAASGLIFLDYAMGWNRQAPWKERELVAAITGRGGSTYYADSVKGRFTISRDNAKNTVYLQMNSLKPDDTAVYDCAAQYSYPTPYRTYEYDYWGQGTQVTVSS,high polyreactivity
8,QVQLVESGGGLVQAGGSLRLSCAASGLIFLEYAMGWYRQAPGKERELLAAISTSGGSTYYADSVKGRFTISRDNAKNTVYLQMNSLKPEDTAVYYCAAEPVYNYYFHDGDYWGQGTQVTVSS,low polyreactivity
9,QVQLVESGGGLVQAGGSLRLSCAASGLIFLPYAMGWYRQAPGKERELVAAIRWSDDSTYYADSVKGRFTILRDNAKNTVYFQMNCLKPEDTAVYYCNAYVYRPSYIFNYYYEYDYWGQGTQVTVSS,high polyreactivity
10,QVQLVESGGGLVQAGGSLRLSCAASGLIFLYYAMGWYRQAPGKERELVAAISRRGGSTYYADSVKGRFTISRDNAKNTVYLQMNSLKPEDTAVYYCAAKYESYPGGIWTYYYWGQGTQVTVSS,high polyreactivity
11,QVQLVESGGGLVQAGGSLRLSCAASGLIFNLYAIGWNRQAPGKEREFVATITGIGGSTYYADSVKGRFTISRDNAMNTVYFQMNSLKPEDTAVYYCAADAWFLPYNYWGQGTQVTVSS,low polyreactivity
12,QVQLVESGGGLVQAGGSLRLSCAASGLIFNLYAMGWYRQAPGKEREFVATITGIGGSTYYADSVKGRFTISRDNANNTVYLQMTSLKPEDTAVYYCAADAWFLPYNYWGQGTQVTVSS,low polyreactivity
13,QVQLVESGGGLVQAGGSLRLSCAASGLIFPFYTMGWYRQAPGKERELVAAISYSGGSTYYADSVKGRFAISRDNAKNTVYLQMNSLKPEDTAVYYCAKSYRTTYHFWSGYDYWGQGTQVTVSS,low polyreactivity
14,QVQLVESGGGLVQAGGSLRLSCAASGLIFPKNAMGWYRQAPGKERELVAAISSSDSSTYADSVKGRFTISRDNAKNTVYLQMNSLKPEDTAVYYCAAASYNWLDWVTREYWGQGTQVTVSS,low polyreactivity
15,QVQLVESGGGLVQAGGSLRLSCAASGLIFPRNAMGWYRQAPGKERELVAVISRSGTSTYYADSVKGRFTISRDNAKNTVYLQMNSLKPEDTAVYYCAAAPSQVYRARFYYWGQGTQVTVSS,high polyreactivity
16,QVQLVESGGGLVQAGGSLRLSCAASGLIFPSYTMGWYRQAPGKDRELVAAITFSGDSTNYADSVKGRFTISRDNAKNTVYLQMNSLKPEDTAVYNCAASQVSDTTRFGYWGQGTQVTVSS,low polyreactivity
17,QVQLVESGGGLVQAGGSLRLSCAASGLIFPTNAMGWYRQAPGKERELVAAISSVGSTYYADSVKGRFTISRDNAKNTVYLQMNSLKPEDTAVYYCAADWTLDPSYGYYADDYWGQGTQVTVSS,low polyreactivity
18,QVQLVESGGGLVQAGGSLRLSCAASGLIFPVYDMGWYRQAPGKERELVAAITRSGDSTYYADSVKGRFTISRDNAKNTVYLQMNSLKPEDTAVYYCAAQPGTASYAGDGDSWGQGTQVTVSS,low polyreactivity
19,QVQLVESGGGLVQAGGSLRLSCAASGLIFPYYTMGWYRQAPGKEGELVAVINRGGSTSYADSVKGRFTISRDNAKNTFYLQMNSLKPEDTAVYYCAARKWRYYSHVIYDYWGQGTQVTVSS,high polyreactivity
20,QVQLVESGGGLVQAGGSLRLSCAASGLIFPYYVMGWYRQAPGKERELVAAISVSGGNTYYADSVKGRFTISRDNAKNTVYLQMNSLKPEDTAVYYCAADHYRGSYDYWGQGTQVTVSS,high polyreactivity
21,QVQLVESGGGLVQAGGSLRLSCAASGLIFPYYVMGWYRQAPGKERELVAAITWSGGRTYYADSVKGRFTISRDNAKNTVSLQMNSLKPEDTAVYYCAATYWTIDYWGQGTQVTVSS,low polyreactivity
22,QVQLVESGGGLVQAGGSLRLSCAASGLIFRGNDMGWYRQAPGKERELVAGINSSGSTNYADSVKGRFTISRDNAKNTVYLHMNSLKPEDTAVYYCAARAIVSFDYCGQGTQVTVSS,low polyreactivity

row,Sequence,polyreactivity (PSR sort gate)
1,QVQLVESGGGLVQAGGSLRLSCAASGLIFRGYAMGWYIQAPGKERELVAAISKSGGSTYYADSVKGRFTISRDNAKNTVYLQMNSLKPEDTAVYYCNTDYDWKYFLSSQYDYWGQGTQVTVSS,high polyreactivity
2,QVQLVESGGGLVQAGGSLRLSCAASGLIFRGYAMGWYRQAPGKERELVAAISSIAGSTYYADSVKGRFTISRDNAKNTVYLQMNSLKPEDTAVYYCAARSRWTFRDYYYWGQGTQVTVSS,high polyreactivity
3,QVQLVESGGGLVQAGGSLRLSCAASGLIFRHYAMGWYRQAPGKERELVAAIDYSGGSTYYADSVKGRFTISRDNAKNSVYLQMNSLKPEDTAVYYCAADYFWLYYSEYGYWGQGTQVNVSS,low polyreactivity
4,QVQLVESGGGLVQAGGSLRLSCAASGLIFRHYAMGWYRQAPGKERELVAAIDYSGGSTYYADSVKGRFTISRDNAKNTVYLQMNSQKPEDTAVYYCAADYFWMYYSEYGYWGQGTQVTVSS,low polyreactivity
5,QVQLVESGGGLVQAGGSLRLSCAASGLIFRHYVMGWYRQAPGKETELVAAITSRGGTTYYADSVKGRFTISRDNAKNTVYIQMNSLKPEDTAVYYCNAVDIYPTRYEYDYWGQGTQVTVSS,high polyreactivity
6,QVQLVESGGGLVQAGGSLRLSCAASGLIFRLYAMGWYRQAPGKERELVAALSISGGSTYYADSVKGRFTLSRDNAKNTVYLQMNSLKPEDTAVYYCAARYYRGGPYYKYDYWGQGTQVTVSS,high polyreactivity
7,QVQLVESGGGLVQAGGSLRLSCAASGLIFRPYTMGWYRQAPGKERELVAAINFSGGNTYYADSVKGRFTISRDNAKNTVYLQMNSLKPEDTAVYYCATKSFYGYYYWPYGYWGQGTQVTVSS,low polyreactivity
8,QVQLVESGGGLVQAGGSLRLSCAASGLIFRRYAMGWYIQAPGKEREFVAAIRYTGGGTYYADSVKGRFTISRDNAKNTVYLQMNRLKPEDTAVYYCNTVEYRWGYISKVPKYDYWGQGTQVTLSS,high polyreactivity
9,QVQLVESGGGLVQAGGSLRLSCAASGLIFRRYAMGWYRQAPGKERELVAAITIGGSTSYADSVKGRFTISRDNAKNTVYLQMNSLKPEDTAVYYCAARWGALWYRPYDYWGQGTQVTVSS,high polyreactivity
10,QVQLVESGGGLVQAGGSLRLSCAASGLIFRTYTMGWYRQAPGKERELVATITRRCGTTYYADSVKGRFTISRDNAKNTVYLQMNSLKPEDTAVYYFAKSPYYTWKYDYWGQGTQVTVSS,high polyreactivity
11,QVQLVESGGGLVQAGGSLRLSCAASGLIFRWYAMGWYRQAPGKERELDAAISTSGGRTYYADSVKGRFTISRDNAKNTVYLQMNSLKPEDTAVYYCNAQHASWYTAYSVSFDYWGQGTQVTVSS,low polyreactivity
12,QVQLVESGGGLVQAGGSLRLSCAASGLIFRWYAMGWYRQAPGKEREMVAAITSGGTTNYADSVTGRFTISRDNAKNTVYFQMNSLKPEHSAVYSCNAIVLSYSRYDYWGQGTQVTVSS,high polyreactivity
13,QVQLVESGGGLVQAGGSLRLSCAASGLIFRYNAMGWSRQAPGKERELVAAISRSGGTTYYADSVKGRFTISRDNAKNTVYLQMNSLKPEDTAVYYCATRISQSYYNYGYWGQGTQVTVSS,high polyreactivity
14,QVQLVESGGGLVQAGGSLRLSCAASGLIFRYYAKGWYRQAPGKERELFAAISLRGGSTYYADSVKGRFTISRDNAKNNVYLQMNSLKPEDTAVYYCAAQWASFSVANLYGYWGQGTQVTVSS,high polyreactivity
15,QVQLVESGGGLVQAGGSLRLSCAASGLIFRYYAMGWYRQAPGKERELVAAITWRGGRTYYADSVKGRFTISRDNAKNTVYLQMNSLKPEDTAVYYCNKDGPYQVITYDYWGQGTQVTVSS,high polyreactivity
16,QVQLVESGGGLVQAGGSLRLSCAASGLIFRYYSMAWYRQAPGKERELVAAISKSGDRTYYADSVKGRFTISRDNAKNTVYLEMNSLKPEATGVYYCAADSYPSPNFEDNYWGQGTQVTVSS,low polyreactivity
17,QVQLVESGGGLVQAGGSLRLSCAASGLIFSAYDMGWYRQAPGKERELVASITSGGSTYYADSVKGRFTISRDNAKNTVYLQMNSLKPEDTAVYYCNADGGWYQYRWRYIEGEYWGQGTQVTLSS,low polyreactivity
18,QVQLVESGGGLVQAGGSLRLSCAASGLIFSFYALGWYRQAPGKERELVAAINRSGGSTYYADSVKGRFTISRDNSKNTVYLQMNSLKPEDTAVYYCAARNAFGTYYYWGQGTQVTVSS,high polyreactivity
19,QVQLVESGGGLVQAGGSLRLSCAASGLIFSFYDMGWYRQAPGKEREFVAAISGSGGSTYYADSVKGRFTISRDNEKNTVYLHMNILKPEDTAVYYCAAEYFTFYWKLDYWGQGTQVTVSS,high polyreactivity
20,QVQLVESGGGLVQAGGSLRLSCAASGLIFSGYAMGWYRQAPGKERELVAAISRGGGRTSYADSVKGRFTISRDNAKNTVYLQMNSLKPEDTAVYYCAKDPRYLRYEHWGQGSQVTVSS,high polyreactivity
21,QVQLVESGGGLVQAGGSLRLSCAASGLIFSGYDMGWYRQAPGKERELVAAITWSGGRTYADSVKGRFTISRDNAKNTVYLQMNSLKPEDTAVYYCNADAYIDYWPYTWDYDYWGQGTQVTVSS,high polyreactivity
